Measurements as given in patent publication US20150344570A1 (published 2015).

B1: GpH7-B3 variant S337_04F/GpL16-k0 (antibody, human IgG1, kappa)
heavy: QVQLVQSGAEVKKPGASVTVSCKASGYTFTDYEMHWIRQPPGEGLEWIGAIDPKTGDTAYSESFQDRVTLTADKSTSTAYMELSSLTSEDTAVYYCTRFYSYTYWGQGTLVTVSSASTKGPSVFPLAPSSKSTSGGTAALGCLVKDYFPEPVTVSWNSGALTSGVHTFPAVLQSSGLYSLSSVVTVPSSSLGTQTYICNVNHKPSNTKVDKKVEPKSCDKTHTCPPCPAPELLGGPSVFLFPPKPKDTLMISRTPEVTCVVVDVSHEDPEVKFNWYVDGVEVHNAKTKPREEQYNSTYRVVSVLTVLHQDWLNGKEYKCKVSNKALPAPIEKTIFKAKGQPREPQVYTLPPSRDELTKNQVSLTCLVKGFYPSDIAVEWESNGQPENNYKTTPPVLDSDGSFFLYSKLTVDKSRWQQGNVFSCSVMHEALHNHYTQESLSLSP
light: DIVMTQSPLSLPVTPGEPASISCQASESLVHSNRNTYLHWYLQKPGQSPQLLIYKVSNRFSGVPDRFSGSGSGTDFTLKISRVEAEDVGVYYCSQNTHVPPTFGQGTKVEIERTVAAPSVFIFPPSDEQLKSGTASVVCLLNNFYPREAKVQWKVDNALQSGNSQESVTEQDSKDSTYSLSSTLTLSKADYEKHKVYACEVTHQGLSSPVTKSFNRGEC
notes: also called Ho Ab S337_04F
B2: GpH7-A5/GpH7-B3 variant S298_11K/GpL16-k0 (antibody, human IgG1, kappa)
heavy 1: not shown
heavy 2: not shown
light: B1 light
notes: also called He Ab S298_11K
B3: GpH7-B3 variant T335_11K/GpL16-k0 (antibody, human IgG1, kappa)
heavy: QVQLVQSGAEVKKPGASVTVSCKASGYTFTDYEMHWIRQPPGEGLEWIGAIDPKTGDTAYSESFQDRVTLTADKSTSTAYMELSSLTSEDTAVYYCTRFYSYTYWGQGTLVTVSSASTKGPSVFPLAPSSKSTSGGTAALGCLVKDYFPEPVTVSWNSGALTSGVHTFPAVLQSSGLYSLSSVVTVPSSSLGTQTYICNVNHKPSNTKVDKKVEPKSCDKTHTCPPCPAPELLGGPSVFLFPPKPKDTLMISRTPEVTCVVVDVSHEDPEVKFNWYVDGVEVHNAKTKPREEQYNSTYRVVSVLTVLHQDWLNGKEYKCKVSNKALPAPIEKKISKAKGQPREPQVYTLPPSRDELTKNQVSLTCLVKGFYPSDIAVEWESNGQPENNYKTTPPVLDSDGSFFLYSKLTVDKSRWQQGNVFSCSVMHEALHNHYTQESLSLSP
light: B1 light
notes: also called Ho Ab T335_11K
B4: GpH7-B3 variant S337_19Q/GpL16-k0 (antibody, human IgG1, kappa)
heavy: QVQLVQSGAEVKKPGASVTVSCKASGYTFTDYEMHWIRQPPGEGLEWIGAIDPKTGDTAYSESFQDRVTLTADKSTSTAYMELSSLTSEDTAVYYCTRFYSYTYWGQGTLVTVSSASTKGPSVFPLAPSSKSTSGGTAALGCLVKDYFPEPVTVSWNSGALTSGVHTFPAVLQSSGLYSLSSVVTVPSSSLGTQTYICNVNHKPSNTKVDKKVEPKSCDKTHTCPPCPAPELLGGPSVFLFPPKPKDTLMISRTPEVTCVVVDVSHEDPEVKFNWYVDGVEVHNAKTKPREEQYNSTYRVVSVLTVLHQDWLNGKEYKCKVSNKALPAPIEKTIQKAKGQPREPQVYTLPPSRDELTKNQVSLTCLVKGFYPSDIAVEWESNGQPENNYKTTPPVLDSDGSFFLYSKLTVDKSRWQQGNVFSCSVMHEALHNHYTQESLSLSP
light: B1 light
notes: also called Ho Ab S337_19Q
B5: GpH7-A5/GpH7-B3 variant S267_16H/GpL16-k0 (antibody, human IgG1, kappa)
heavy 1: not shown
heavy 2: not shown
light: B1 light
notes: also called He Ab S267_16H
B6: GpH7-B3 variant S337_08L/GpL16-k0 (antibody, human IgG1, kappa)
heavy: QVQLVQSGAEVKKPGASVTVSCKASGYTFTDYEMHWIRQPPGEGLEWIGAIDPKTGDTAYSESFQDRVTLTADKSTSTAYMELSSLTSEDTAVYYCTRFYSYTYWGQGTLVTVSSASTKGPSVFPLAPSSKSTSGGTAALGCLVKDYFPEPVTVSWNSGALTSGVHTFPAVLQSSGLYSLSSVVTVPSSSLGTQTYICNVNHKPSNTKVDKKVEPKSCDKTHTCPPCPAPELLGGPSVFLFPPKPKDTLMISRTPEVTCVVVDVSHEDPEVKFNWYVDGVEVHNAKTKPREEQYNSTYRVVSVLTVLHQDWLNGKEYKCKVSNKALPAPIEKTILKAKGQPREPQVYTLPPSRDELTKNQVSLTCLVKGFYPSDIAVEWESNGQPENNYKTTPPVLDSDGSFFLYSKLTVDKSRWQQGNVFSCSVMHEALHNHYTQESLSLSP
light: B1 light
notes: also called Ho Ab S337_08L
B7: GpH7-A5/GpH7-B3 variant S267_02A/GpL16-k0 (antibody, human IgG1, kappa)
heavy 1: not shown
heavy 2: not shown
light: B1 light
notes: also called He Ab S267_02A
B8: GpH7-A5/GpH7-B3 variant P271_07I/GpL16-k0 (antibody, human IgG1, kappa)
heavy 1: not shown
heavy 2: not shown
light: B1 light
notes: also called He Ab P271_07I
B9: GpH7-A5/GpH7-B3 variant Q295_08L/GpL16-k0 (antibody, human IgG1, kappa)
heavy 1: not shown
heavy 2: not shown
light: B1 light
notes: also called He Ab Q295_08L
B10: GpH7-A5/GpH7-B3 variant Q295_04F/GpL16-k0 (antibody, human IgG1, kappa)
heavy 1: not shown
heavy 2: not shown
light: B1 light
notes: also called He Ab Q295_04F
B11: GpH7-A5/GpH7-B3 variant S239_19Q/GpL16-k0 (antibody, human IgG1, kappa)
heavy 1: not shown
heavy 2: not shown
light: B1 light
notes: also called He Ab S239_19Q
B12: GpH7-B3 variant S337_12R/GpL16-k0 (antibody, human IgG1, kappa)
heavy: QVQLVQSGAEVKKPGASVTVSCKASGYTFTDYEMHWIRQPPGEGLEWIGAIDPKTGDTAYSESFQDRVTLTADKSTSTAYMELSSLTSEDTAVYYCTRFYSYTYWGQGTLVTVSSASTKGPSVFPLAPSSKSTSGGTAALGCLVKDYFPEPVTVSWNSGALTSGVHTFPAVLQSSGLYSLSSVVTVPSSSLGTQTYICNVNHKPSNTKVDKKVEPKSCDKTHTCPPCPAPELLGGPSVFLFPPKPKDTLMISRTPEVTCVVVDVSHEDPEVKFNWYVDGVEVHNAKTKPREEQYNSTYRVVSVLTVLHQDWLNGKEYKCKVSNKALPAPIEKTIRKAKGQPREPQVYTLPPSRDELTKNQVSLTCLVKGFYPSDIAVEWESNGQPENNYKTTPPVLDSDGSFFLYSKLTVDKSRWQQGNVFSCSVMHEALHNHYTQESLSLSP
light: B1 light
notes: also called Ho Ab S337_12R
B13: GpH7-A5/GpH7-B3 variant S298_01G/GpL16-k0 (antibody, human IgG1, kappa)
heavy 1: not shown
heavy 2: not shown
light: B1 light
notes: also called He Ab S298_01G
B14: GpH7-A5/GpH7-B3 variant S267_08L/GpL16-k0 (antibody, human IgG1, kappa)
heavy 1: not shown
heavy 2: not shown
light: B1 light
notes: also called He Ab S267_08L
B15: GpH7-A5/GpH7-B3 variant Q295_03V/GpL16-k0 (antibody, human IgG1, kappa)
heavy 1: not shown
heavy 2: not shown
light: B1 light
notes: also called He Ab Q295_03V
B16: GpH7-A5/GpH7-B3 variant S239_09D/GpL16-k0 (antibody, human IgG1, kappa)
heavy 1: not shown
heavy 2: not shown
light: B1 light
notes: also called He Ab S239_09D
B17: GpH7-A5/GpH7-B3 variant Q295_14T/GpL16-k0 (antibody, human IgG1, kappa)
heavy 1: not shown
heavy 2: not shown
light: B1 light
notes: also called He Ab Q295_14T
B18: GpH7-A5/GpH7-B3 variant S267_03V/GpL16-k0 (antibody, human IgG1, kappa)
heavy 1: not shown
heavy 2: not shown
light: B1 light
notes: also called He Ab S267_03V
B19: GpH7-A5/GpH7-B3 variant Q295_13S/GpL16-k0 (antibody, human IgG1, kappa)
heavy 1: not shown
heavy 2: not shown
light: B1 light
notes: also called He Ab Q295_13S
B20: GpH7-B3 variant S337_20W/GpL16-k0 (antibody, human IgG1, kappa)
heavy: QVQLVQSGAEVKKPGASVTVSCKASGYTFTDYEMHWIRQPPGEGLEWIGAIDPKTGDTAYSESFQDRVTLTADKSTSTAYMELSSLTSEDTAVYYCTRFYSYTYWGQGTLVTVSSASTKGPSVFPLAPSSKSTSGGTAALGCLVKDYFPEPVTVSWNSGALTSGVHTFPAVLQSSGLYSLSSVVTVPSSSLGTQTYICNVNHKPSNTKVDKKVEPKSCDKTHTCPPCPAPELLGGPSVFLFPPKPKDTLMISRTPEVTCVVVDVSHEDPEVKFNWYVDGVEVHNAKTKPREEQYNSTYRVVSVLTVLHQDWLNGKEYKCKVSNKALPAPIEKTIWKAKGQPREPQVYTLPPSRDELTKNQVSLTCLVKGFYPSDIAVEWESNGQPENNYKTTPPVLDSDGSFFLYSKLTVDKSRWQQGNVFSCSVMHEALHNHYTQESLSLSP
light: B1 light
notes: also called Ho Ab S337_20W
B21: GpH7-A5/GpH7-B3 variant P271_20W/GpL16-k0 (antibody, human IgG1, kappa)
heavy 1: not shown
heavy 2: not shown
light: B1 light
notes: also called He Ab P271_20W
B22: GpH7-B3 variant T335_08L/GpL16-k0 (antibody, human IgG1, kappa)
heavy: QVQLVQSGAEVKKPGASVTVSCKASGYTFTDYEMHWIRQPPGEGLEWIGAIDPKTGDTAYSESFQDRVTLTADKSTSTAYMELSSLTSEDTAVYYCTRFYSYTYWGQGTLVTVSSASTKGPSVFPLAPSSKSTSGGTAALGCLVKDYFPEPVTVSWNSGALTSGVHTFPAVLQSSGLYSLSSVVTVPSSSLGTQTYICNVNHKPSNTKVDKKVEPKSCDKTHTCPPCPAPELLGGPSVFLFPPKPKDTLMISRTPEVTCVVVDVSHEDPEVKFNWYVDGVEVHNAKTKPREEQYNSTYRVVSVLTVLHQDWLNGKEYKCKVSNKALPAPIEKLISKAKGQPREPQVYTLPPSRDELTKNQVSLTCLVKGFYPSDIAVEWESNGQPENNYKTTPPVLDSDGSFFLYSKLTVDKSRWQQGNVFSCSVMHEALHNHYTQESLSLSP
light: B1 light
notes: also called Ho Ab T335_08L
B23: GpH7-A5/GpH7-B3 variant Q295_02A/GpL16-k0 (antibody, human IgG1, kappa)
heavy 1: not shown
heavy 2: not shown
light: B1 light
notes: also called He Ab Q295_02A
B24: GpH7-B3 variant T335_05P/GpL16-k0 (antibody, human IgG1, kappa)
heavy: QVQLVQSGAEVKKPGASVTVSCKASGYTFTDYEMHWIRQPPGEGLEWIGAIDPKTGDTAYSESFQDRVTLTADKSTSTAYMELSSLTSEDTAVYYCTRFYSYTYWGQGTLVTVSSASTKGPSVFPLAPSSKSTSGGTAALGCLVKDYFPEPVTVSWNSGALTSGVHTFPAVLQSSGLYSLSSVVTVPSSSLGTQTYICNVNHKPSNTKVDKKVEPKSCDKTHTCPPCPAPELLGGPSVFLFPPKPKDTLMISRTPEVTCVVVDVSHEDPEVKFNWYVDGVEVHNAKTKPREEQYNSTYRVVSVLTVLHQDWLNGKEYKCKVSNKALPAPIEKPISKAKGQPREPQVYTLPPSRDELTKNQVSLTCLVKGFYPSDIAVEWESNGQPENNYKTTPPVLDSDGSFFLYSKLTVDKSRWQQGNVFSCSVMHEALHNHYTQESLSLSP
light: B1 light
notes: also called Ho Ab T335_05P
B25: GpH7-A5/GpH7-B3 variant Q295_05P/GpL16-k0 (antibody, human IgG1, kappa)
heavy 1: not shown
heavy 2: not shown
light: B1 light
notes: also called He Ab Q295_05P
B26: GpH7-A5/GpH7-B3 variant S298_07I/GpL16-k0 (antibody, human IgG1, kappa)
heavy 1: not shown
heavy 2: not shown
light: B1 light
notes: also called He Ab S298_07I
B27: GpH7-A5/GpH7-B3 variant S298_02A/GpL16-k0 (antibody, human IgG1, kappa)
heavy 1: not shown
heavy 2: not shown
light: B1 light
notes: also called He Ab S298_02A; GpH7-A5/GpH7-B3-15-02A/GpL16-k0
B28: GpH7-B3 variant S337_09D/GpL16-k0 (antibody, human IgG1, kappa)
heavy: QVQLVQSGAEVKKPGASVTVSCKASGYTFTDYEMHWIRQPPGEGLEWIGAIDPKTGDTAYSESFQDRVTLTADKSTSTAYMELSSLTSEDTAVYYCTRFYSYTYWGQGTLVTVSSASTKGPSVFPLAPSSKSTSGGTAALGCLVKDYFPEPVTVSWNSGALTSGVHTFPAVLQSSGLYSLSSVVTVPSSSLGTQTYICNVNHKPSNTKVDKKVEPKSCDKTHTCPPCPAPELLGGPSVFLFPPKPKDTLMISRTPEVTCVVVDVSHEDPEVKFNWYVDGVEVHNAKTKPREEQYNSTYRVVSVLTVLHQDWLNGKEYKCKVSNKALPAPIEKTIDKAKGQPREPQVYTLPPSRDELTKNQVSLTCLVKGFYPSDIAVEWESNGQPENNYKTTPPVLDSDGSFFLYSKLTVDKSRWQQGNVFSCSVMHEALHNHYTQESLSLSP
light: B1 light
notes: also called Ho Ab S337_09D

Assays:
FcγRIa [1] = molecular target: T1, FcγRIa (human, UniProt P12314 16-292); experiment: SPR (Biacore); Ho Ab vs HoCon Ab GpH7-B3/GpL16-k0
T1 construct: extracellular domain; Soluble extracellular domain expressed in FreeStyle293 cells, used as analyte in Biacore; also called FcgRI; 1a; not shown: His tag attached to the C terminus
T1 sequence (P12314 16-292): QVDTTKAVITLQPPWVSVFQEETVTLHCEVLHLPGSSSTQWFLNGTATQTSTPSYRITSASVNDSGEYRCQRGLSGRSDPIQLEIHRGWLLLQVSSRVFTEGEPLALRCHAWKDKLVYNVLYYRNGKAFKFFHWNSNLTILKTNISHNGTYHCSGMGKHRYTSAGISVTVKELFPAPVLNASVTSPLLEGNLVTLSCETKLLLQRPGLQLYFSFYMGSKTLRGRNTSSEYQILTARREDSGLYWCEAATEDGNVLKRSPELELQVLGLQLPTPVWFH
Protocol: (§1) Analysis of interaction between objective antibody and the FcγR was carried out using Biacore T100 (GE Healthcare). HBS-EP+ (GE Healthcare) was used as the running buffer, and the measurement temperature was set to 25° C. Chips produced by immobilizing the antigen peptide by the amine coupling method to a Series S Sencor Chip CM5 (GE Healthcare), or alternatively, chips produced by allowing preliminarily biotinylated antigen peptides to interact with and immobilize onto a Series S Sensor Chip SA (certified) (GE Healthcare) were used. Antibodies of interest were captured onto an antigen peptide-immobilized chip, and allowed to interact to each FcγR diluted with running buffer. To regenerate and repeatedly use the chip, the antibodies captured on the chip were washed off by reacting 10 mM glycine-HCl, pH 1.5.

FcγRIa [2] = molecular target: T1, FcγRIa; experiment: SPR (Biacore); He Ab vs HeCon Ab GpH7-A5/GpH7-B3/GpL16-k0
Protocol: as §1

Binder	Ho/Con_1a (FcγRIa [1])	He/Con_1a (FcγRIa [2])
B1	105 relative binding, control = 100	
B2		109 relative binding, control = 100
B3	103 relative binding, control = 100	
B4	105 relative binding, control = 100	
B5		100 relative binding, control = 100
B6	105 relative binding, control = 100	
B7		109 relative binding, control = 100
B8		102 relative binding, control = 100
B9		105 relative binding, control = 100
B10		102 relative binding, control = 100
B11		101 relative binding, control = 100
B12	105 relative binding, control = 100	
B13		104 relative binding, control = 100
B14		101 relative binding, control = 100
B15		104 relative binding, control = 100
B16		101 relative binding, control = 100
B17		103 relative binding, control = 100
B18		106 relative binding, control = 100
B19		102 relative binding, control = 100
B20	104 relative binding, control = 100	
B21		103 relative binding, control = 100
B22	105 relative binding, control = 100	
B23		104 relative binding, control = 100
B24	106 relative binding, control = 100	
B25		103 relative binding, control = 100
B26		107 relative binding, control = 100
B27		107 relative binding, control = 100
B28	106 relative binding, control = 100	
